From PMC10922510

Legend:
Test in all cases: BLI
[1] = molecular target: biotinylated human FcγRIIa-131H extracellular domain with AviTag (human) (UniProt P12318)
[2] = molecular target: biotinylated human FcγRIIa-131R extracellular domain with AviTag (human) (UniProt P12318)
[3] = molecular target: biotinylated human FcγRIIb extracellular domain with AviTag (human) (UniProt P31994)
[4] = molecular target: biotinylated human FcγRIIIa-176V extracellular domain with AviTag (human) (UniProt P08637)
Sequence of UniProt P08637 (P08637 17-208 F176V): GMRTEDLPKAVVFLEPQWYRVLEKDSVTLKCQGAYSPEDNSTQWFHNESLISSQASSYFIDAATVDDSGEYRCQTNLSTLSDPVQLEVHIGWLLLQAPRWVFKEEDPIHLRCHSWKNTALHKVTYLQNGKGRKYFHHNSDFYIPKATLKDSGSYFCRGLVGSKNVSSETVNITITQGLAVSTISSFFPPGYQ

Sequence of UniProt P31994 (P31994 43-217): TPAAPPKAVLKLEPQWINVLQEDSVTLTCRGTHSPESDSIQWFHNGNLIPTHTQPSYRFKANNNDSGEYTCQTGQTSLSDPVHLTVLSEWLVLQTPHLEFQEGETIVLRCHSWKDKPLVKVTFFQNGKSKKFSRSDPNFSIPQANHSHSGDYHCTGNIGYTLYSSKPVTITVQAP

| Substance | Kd [1] [nM] | Kd [2] [nM] | Kd [3] [nM] | Kd [4] [nM] |
| --- | --- | --- | --- | --- |
| human IgG1 trastuzumab with Fc mutation G236A (antibody) | 120 | 210 | – | – |
| human IgG1 trastuzumab with Fc mutation P238D (antibody) | – | – | 310 | – |
| human IgG1 trastuzumab, wild-type Fc (antibody) | 290 | 610 | 360 | 610 |
